Results from patent US20230406885A1, “CYCLIC PEPTIDES FOR TRAPPING INTERLEUKIN-1 BETA” (MERCK SHARP & DOHME LLC, priority 2022, published 2023).
*1 amine or outer side, *2 acyl side, *3 side chain or, on linkers, in order; H or OH if unused. Primed or numbered codes have the meaning given here. [ ]: non-standard residue; d: D form. TyrEtNAc = L-tyrosine O-ethyl acetamide, (S)-3-(4-(2-acetamidoethoxy)phenyl)-2-aminopropanoic acid, CC(=O)NCCOc1ccc(C[C@H](N[*:1])C(=O)[*:2])cc1; 3AzaPhe4AcPip = (S)-3-(6-(4-acetylpiperazin-1-yl)pyridin-3-yl)-2-aminopropanoic acid, CC(=O)N1CCN(c2ccc(C[C@H](N[*:1])C(=O)[*:2])cn2)CC1; AEF′ = (S)-2-amino-3-(6-(2-aminoethoxy)pyridin-3-yl)propanoic acid, O=C([C@H](Cc1ccc(OCCN[*:3])nc1)N[*:1])[*:2]; Ala(piperidin-4-yl) = O=C([C@H](CC1CCN([*:3])CC1)N[*:1])[*:2]; Pro(trans-4-NH2) = O=C([C@@H]1C[C@@H](N[*:3])CN1[*:1])[*:2]; Trp(βS-Me,4-F) = C[C@@H](c1c[nH]c2cccc(F)c12)[C@H](N)C(=O)O; Bip(4'-COOH) = N[C@@H](Cc1ccc(-c2ccc(C(=O)O)cc2)cc1)C(=O)O; 1Nal(3S-Me) = C[C@@H](c1cccc2ccccc12)[C@H](N)C(=O)O; Phe(4-COOH) = N[C@@H](Cc1ccc(C(=O)O)cc1)C(=O)O; hTyr = N[C@@H](CCc1ccc(O)cc1)C(=O)O; hCha = N[C@@H](CCC1CCCCC1)C(=O)O; hPhe = N[C@@H](CCc1ccccc1)C(=O)O; dOrn = NCCC[C@@H](N)C(=O)O; dDab = NCC[C@@H](N)C(=O)O; dNMeA = CN[C@H](C)C(=O)O; Dab = NCC[C@H](N)C(=O)O; Dap = NC[C@H](N)C(=O)O

Target: Recombinant human IL-1β (BioLegend 579404) (human, UniProt P01584 117-269)
Experiment: cell-based or functional assay

Binder | MRC5 IC50 [nM]
cyclo([TyrEtNAc]W[Phe(4-COOH)]G[Pro(trans-4-NH2)][Trp(βS-Me,4-F)]D[dNMeA]G[Bip(4'-COOH)]WL[dA][AEF′]) [SEQ ID NO: 164 (Example No. 164)] | 0.459
cyclo([TyrEtNAc]W[Phe(4-COOH)]G[Pro(trans-4-NH2)][Trp(βS-Me,4-F)]D[dNMeA]G[Bip(4'-COOH)]WL[dA][hTyr]) (SMILES CC(=O)NCCOc1ccc(C[C@@H]2NC(=O)[C@H](CCc3ccc(O)cc3)NC(=O)[C@@H](C)NC(=O)[C@H](CC(C)C)NC(=O)[C@H](Cc3c[nH]c4ccccc34)NC(=O)[C@H](Cc3ccc(-c4ccc(C(=O)O)cc4)cc3)NC(=O)CNC(=O)[C@@H](C)N(C)C(=O)[C@H](CC(=O)O)NC(=O)[C@H]([C@@H](C)c3c[nH]c4cccc(F)c34)NC(=O)[C@@H]3C[C@@H](N)CN3C(=O)CNC(=O)[C@H](Cc3ccc(C(=O)O)cc3)NC(=O)[C@H](Cc3c[nH]c4ccccc34)NC2=O)cc1) [SEQ ID NO: 167 (Example No. 167)] | 0.136
cyclo([TyrEtNAc]W[Phe(4-COOH)]G[Pro(trans-4-NH2)][Trp(βS-Me,4-F)]D[dNMeA]G[Bip(4'-COOH)]WL[dDab][hTyr]) (SMILES CC(=O)NCCOc1ccc(C[C@@H]2NC(=O)[C@H](CCc3ccc(O)cc3)NC(=O)[C@@H](CCN)NC(=O)[C@H](CC(C)C)NC(=O)[C@H](Cc3c[nH]c4ccccc34)NC(=O)[C@H](Cc3ccc(-c4ccc(C(=O)O)cc4)cc3)NC(=O)CNC(=O)[C@@H](C)N(C)C(=O)[C@H](CC(=O)O)NC(=O)[C@H]([C@@H](C)c3c[nH]c4cccc(F)c34)NC(=O)[C@@H]3C[C@@H](N)CN3C(=O)CNC(=O)[C@H](Cc3ccc(C(=O)O)cc3)NC(=O)[C@H](Cc3c[nH]c4ccccc34)NC2=O)cc1) [SEQ ID NO: 168 (Example No. 168)] | 0.0847
cyclo([TyrEtNAc]W[Phe(4-COOH)]G[Pro(trans-4-NH2)][Trp(βS-Me,4-F)]D[dNMeA]G[Bip(4'-COOH)]WL[dA][Ala(piperidin-4-yl)]) (SMILES CC(=O)NCCOc1ccc(C[C@@H]2NC(=O)[C@H](CC3CCNCC3)NC(=O)[C@@H](C)NC(=O)[C@H](CC(C)C)NC(=O)[C@H](Cc3c[nH]c4ccccc34)NC(=O)[C@H](Cc3ccc(-c4ccc(C(=O)O)cc4)cc3)NC(=O)CNC(=O)[C@@H](C)N(C)C(=O)[C@H](CC(=O)O)NC(=O)[C@H]([C@@H](C)c3c[nH]c4cccc(F)c34)NC(=O)[C@@H]3C[C@@H](N)CN3C(=O)CNC(=O)[C@H](Cc3ccc(C(=O)O)cc3)NC(=O)[C@H](Cc3c[nH]c4ccccc34)NC2=O)cc1) [SEQ ID NO: 165 (Example No. 165)] | 0.781
cyclo([TyrEtNAc]W[Phe(4-COOH)]G[Pro(trans-4-NH2)][Trp(βS-Me,4-F)]D[dNMeA]G[Bip(4'-COOH)]W[Dab][dA][hPhe]) (SMILES CC(=O)NCCOc1ccc(C[C@@H]2NC(=O)[C@H](CCc3ccccc3)NC(=O)[C@@H](C)NC(=O)[C@H](CCN)NC(=O)[C@H](Cc3c[nH]c4ccccc34)NC(=O)[C@H](Cc3ccc(-c4ccc(C(=O)O)cc4)cc3)NC(=O)CNC(=O)[C@@H](C)N(C)C(=O)[C@H](CC(=O)O)NC(=O)[C@H]([C@@H](C)c3c[nH]c4cccc(F)c34)NC(=O)[C@@H]3C[C@@H](N)CN3C(=O)CNC(=O)[C@H](Cc3ccc(C(=O)O)cc3)NC(=O)[C@H](Cc3c[nH]c4ccccc34)NC2=O)cc1) [SEQ ID NO: 163 (Example No. 163)] | 0.156
cyclo([TyrEtNAc]W[Phe(4-COOH)]G[Pro(trans-4-NH2)][Trp(βS-Me,4-F)]D[dNMeA]G[Bip(4'-COOH)]WL[dA][hPhe]) (SMILES CC(=O)NCCOc1ccc(C[C@@H]2NC(=O)[C@H](CCc3ccccc3)NC(=O)[C@@H](C)NC(=O)[C@H](CC(C)C)NC(=O)[C@H](Cc3c[nH]c4ccccc34)NC(=O)[C@H](Cc3ccc(-c4ccc(C(=O)O)cc4)cc3)NC(=O)CNC(=O)[C@@H](C)N(C)C(=O)[C@H](CC(=O)O)NC(=O)[C@H]([C@@H](C)c3c[nH]c4cccc(F)c34)NC(=O)[C@@H]3C[C@@H](N)CN3C(=O)CNC(=O)[C@H](Cc3ccc(C(=O)O)cc3)NC(=O)[C@H](Cc3c[nH]c4ccccc34)NC2=O)cc1) [SEQ ID NO: 166 (Example No. 166)] | 0.149

Now from value to binder:

MRC5 IC50 [nM] | Binder
0.016 | cyclo([3AzaPhe4AcPip]W[Phe(4-COOH)]G[Pro(trans-4-NH2)][1Nal(3S-Me)]D[dNMeA]G[Bip(4'-COOH)][Dap]L[dA][hCha]) (SMILES CC(=O)N1CCN(c2ccc(C[C@@H]3NC(=O)[C@H](CCC4CCCCC4)NC(=O)[C@@H](C)NC(=O)[C@H](CC(C)C)NC(=O)[C@H](CN)NC(=O)[C@H](Cc4ccc(-c5ccc(C(=O)O)cc5)cc4)NC(=O)CNC(=O)[C@@H](C)N(C)C(=O)[C@H](CC(=O)O)NC(=O)[C@H]([C@@H](C)c4cccc5ccccc45)NC(=O)[C@@H]4C[C@@H](N)CN4C(=O)CNC(=O)[C@H](Cc4ccc(C(=O)O)cc4)NC(=O)[C@H](Cc4c[nH]c5ccccc45)NC3=O)cn2)CC1) [SEQ ID NO: 175 (Example No. 175)]
0.112 | cyclo([TyrEtNAc]W[Phe(4-COOH)]G[Pro(trans-4-NH2)][Trp(βS-Me,4-F)]D[dNMeA]G[Bip(4'-COOH)]WL[dK][hTyr]) (SMILES CC(=O)NCCOc1ccc(C[C@@H]2NC(=O)[C@H](CCc3ccc(O)cc3)NC(=O)[C@@H](CCCCN)NC(=O)[C@H](CC(C)C)NC(=O)[C@H](Cc3c[nH]c4ccccc34)NC(=O)[C@H](Cc3ccc(-c4ccc(C(=O)O)cc4)cc3)NC(=O)CNC(=O)[C@@H](C)N(C)C(=O)[C@H](CC(=O)O)NC(=O)[C@H]([C@@H](C)c3c[nH]c4cccc(F)c34)NC(=O)[C@@H]3C[C@@H](N)CN3C(=O)CNC(=O)[C@H](Cc3ccc(C(=O)O)cc3)NC(=O)[C@H](Cc3c[nH]c4ccccc34)NC2=O)cc1) [SEQ ID NO: 169 (Example No. 169)]
0.145 | cyclo([TyrEtNAc]W[Phe(4-COOH)]G[Pro(trans-4-NH2)][Trp(βS-Me,4-F)]D[dNMeA]G[Bip(4'-COOH)]WL[dS][hTyr]) (SMILES CC(=O)NCCOc1ccc(C[C@@H]2NC(=O)[C@H](CCc3ccc(O)cc3)NC(=O)[C@@H](CO)NC(=O)[C@H](CC(C)C)NC(=O)[C@H](Cc3c[nH]c4ccccc34)NC(=O)[C@H](Cc3ccc(-c4ccc(C(=O)O)cc4)cc3)NC(=O)CNC(=O)[C@@H](C)N(C)C(=O)[C@H](CC(=O)O)NC(=O)[C@H]([C@@H](C)c3c[nH]c4cccc(F)c34)NC(=O)[C@@H]3C[C@@H](N)CN3C(=O)CNC(=O)[C@H](Cc3ccc(C(=O)O)cc3)NC(=O)[C@H](Cc3c[nH]c4ccccc34)NC2=O)cc1) [SEQ ID NO: 171 (Example No. 171)]
0.0966 | cyclo([TyrEtNAc]W[Phe(4-COOH)]G[Pro(trans-4-NH2)][Trp(βS-Me,4-F)]D[dNMeA]G[Bip(4'-COOH)]WL[dOrn][hTyr]) (SMILES CC(=O)NCCOc1ccc(C[C@@H]2NC(=O)[C@H](CCc3ccc(O)cc3)NC(=O)[C@@H](CCCN)NC(=O)[C@H](CC(C)C)NC(=O)[C@H](Cc3c[nH]c4ccccc34)NC(=O)[C@H](Cc3ccc(-c4ccc(C(=O)O)cc4)cc3)NC(=O)CNC(=O)[C@@H](C)N(C)C(=O)[C@H](CC(=O)O)NC(=O)[C@H]([C@@H](C)c3c[nH]c4cccc(F)c34)NC(=O)[C@@H]3C[C@@H](N)CN3C(=O)CNC(=O)[C@H](Cc3ccc(C(=O)O)cc3)NC(=O)[C@H](Cc3c[nH]c4ccccc34)NC2=O)cc1) [SEQ ID NO: 170 (Example No. 170)]
0.246 | cyclo([TyrEtNAc]W[Phe(4-COOH)]G[Pro(trans-4-NH2)][Trp(βS-Me,4-F)]D[dNMeA]G[Bip(4'-COOH)]WS[dA][hTyr]) (SMILES CC(=O)NCCOc1ccc(C[C@@H]2NC(=O)[C@H](CCc3ccc(O)cc3)NC(=O)[C@@H](C)NC(=O)[C@H](CO)NC(=O)[C@H](Cc3c[nH]c4ccccc34)NC(=O)[C@H](Cc3ccc(-c4ccc(C(=O)O)cc4)cc3)NC(=O)CNC(=O)[C@@H](C)N(C)C(=O)[C@H](CC(=O)O)NC(=O)[C@H]([C@@H](C)c3c[nH]c4cccc(F)c34)NC(=O)[C@@H]3C[C@@H](N)CN3C(=O)CNC(=O)[C@H](Cc3ccc(C(=O)O)cc3)NC(=O)[C@H](Cc3c[nH]c4ccccc34)NC2=O)cc1) [SEQ ID NO: 172 (Example No. 172)]
0.015 | cyclo([3AzaPhe4AcPip]W[Phe(4-COOH)]G[Pro(trans-4-NH2)][1Nal(3S-Me)]D[dNMeA]G[Bip(4'-COOH)][Dab]L[dA][hCha]) (SMILES CC(=O)N1CCN(c2ccc(C[C@@H]3NC(=O)[C@H](CCC4CCCCC4)NC(=O)[C@@H](C)NC(=O)[C@H](CC(C)C)NC(=O)[C@H](CCN)NC(=O)[C@H](Cc4ccc(-c5ccc(C(=O)O)cc5)cc4)NC(=O)CNC(=O)[C@@H](C)N(C)C(=O)[C@H](CC(=O)O)NC(=O)[C@H]([C@@H](C)c4cccc5ccccc45)NC(=O)[C@@H]4C[C@@H](N)CN4C(=O)CNC(=O)[C@H](Cc4ccc(C(=O)O)cc4)NC(=O)[C@H](Cc4c[nH]c5ccccc45)NC3=O)cn2)CC1) [SEQ ID NO: 174 (Example No. 174)]
0.959 | cyclo([TyrEtNAc]W[Phe(4-COOH)]G[Pro(trans-4-NH2)][Trp(βS-Me,4-F)]D[dNMeA]G[Bip(4'-COOH)]WS[dA][TyrEtNAc]) (SMILES CC(=O)NCCOc1ccc(C[C@@H]2NC(=O)[C@H](Cc3ccc(OCCNC(C)=O)cc3)NC(=O)[C@@H](C)NC(=O)[C@H](CO)NC(=O)[C@H](Cc3c[nH]c4ccccc34)NC(=O)[C@H](Cc3ccc(-c4ccc(C(=O)O)cc4)cc3)NC(=O)CNC(=O)[C@@H](C)N(C)C(=O)[C@H](CC(=O)O)NC(=O)[C@H]([C@@H](C)c3c[nH]c4cccc(F)c34)NC(=O)[C@@H]3C[C@@H](N)CN3C(=O)CNC(=O)[C@H](Cc3ccc(C(=O)O)cc3)NC(=O)[C@H](Cc3c[nH]c4ccccc34)NC2=O)cc1) [SEQ ID NO: 173 (Example No. 173)]
